T1: human BCMA on BCMA-expressing tumor cells (human, UniProt Q02223 1-184)
T1 construct: endogenous BCMA of myeloma cell lines; also called BCMA on KMS12PE, MM1S (MM1.S), L363, KMS12BM cells
T1 sequence: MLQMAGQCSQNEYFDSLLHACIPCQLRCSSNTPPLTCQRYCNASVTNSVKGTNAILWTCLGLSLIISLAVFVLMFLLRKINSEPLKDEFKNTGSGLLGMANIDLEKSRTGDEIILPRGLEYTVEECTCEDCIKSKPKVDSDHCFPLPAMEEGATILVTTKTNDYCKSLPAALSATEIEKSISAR


How the values were obtained:
[1] = target: T1, human BCMA on BCMA-expressing tumor …; test: flow cytometry, 0.5 ug antibody on 250,000 KMS12PE (BCMA+++) cells, Alexa Fluor 647 anti-mouse IgG
Protocol: (§1) Binding of human anti-hBCMA expressed in mouse IgG2a were assessed on BCMA-expressing cells (KMS12BM, L363, MM1S and KMS12PE) by flow cytometry. 250,000 cells were incubated with 0.5 ug antibody in 100 uL binding buffer (PBS (Phosphate Buffered Saline)+0.2% BSA (Bovine Serum Albumin)), followed by incubation with Alex Fluor 647 conjugated anti-mouse IgG (Biolegend).

[2] = target: T1, human BCMA on BCMA-expressing tumor …; test: flow cytometry, 0.5 ug antibody on 250,000 MM1S (BCMA++) cells, Alexa Fluor 647 anti-mouse IgG
Protocol: as §1

[3] = target: T1, human BCMA on BCMA-expressing tumor …; test: flow cytometry, 0.5 ug antibody on 250,000 KMS12BM (BCMA+) cells, Alexa Fluor 647 anti-mouse IgG
Protocol: as §1

[4] = target: T1, human BCMA on BCMA-expressing tumor …; test: flow cytometry, 0.5 ug antibody on 250,000 L363 (BCMA+) cells, Alexa Fluor 647 anti-mouse IgG
Protocol: as §1

human CD3 (huCD3ed) = target: T2, human CD3 (huCD3ed) (human, UniProt P07766 23-126; P04234 22-105); test: Biacore SPR, antibody as ligand, hCD3ed; steady state affinity only, rough estimate (antibody heterogeneous)
T2 construct: Soluble analyte in SPR; The delta chain is inferred from the label 'ed'; also called hCD3ed; hCD3
T2 sequence (P07766 23-126, chain 1 of 2): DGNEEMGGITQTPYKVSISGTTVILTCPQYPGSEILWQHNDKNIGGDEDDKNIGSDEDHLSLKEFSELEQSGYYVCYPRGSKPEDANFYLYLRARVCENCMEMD
T2 sequence (P04234 22-105, chain 2 of 2): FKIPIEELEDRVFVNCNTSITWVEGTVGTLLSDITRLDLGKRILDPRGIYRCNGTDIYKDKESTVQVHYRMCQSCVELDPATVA

MFI [1] | MFI [2] | MFI [3] | MFI [4] | Kd (human CD3 (huCD3ed)) [nM] | Binder
5860 | 2540 | 580 | 1180 |  | A02_Rd4_6 nM_C01 expressed in mouse IgG2a (antibody, V domains shown) VH: EVQLLESGGGLVQPGGSLRLSCAASGFTFSSYAMNWVRQAPGKGLEWVSAITASGGSTYYADSVKGRFTISRDNSKNTLYLQMNSLRAEDTAVYYCARYWPMSLWGQGTLVTVSS VL: EIVLTQSPGTLSLSPGERATLSCRASQSVSAYYLAWYQQKPGQAPRLLMYDASIRATGIPDRFSGSGSGTDFTLTISRLEPEDFAVYYCQQYERWPLTFGQGTKVEIK
6110 | 2570 | 583 | 1670 |  | Combo_Rd4_0.6 nM_C29 expressed in mouse IgG2a (antibody, V domains shown) VH: EVQLLESGGGLVQPGGSLRLSCAASGFTFSSYPMSWVRQAPGKGLEWVSAIGGSGGSLPYADSVKGRFTISRDNSKNTLYLQMNSLRAEDTAVYYCARYWPMDIWGQGTLVTVSS VL: EIVLTQSPGTLSLSPGERATLSCRASQSVSSSYLAWYQQKPGQAPRLLMYDASIRATGIPDRFSGSGSGTDFTLTISRLEPEDFAVYYCQQYQSWPLTFGQGTKVEIK
 |  |  |  | 82.7 | 7A3 (antibody, mouse IgG1, V domains shown, Cloned from immunized mouse, expressed as mouse IgG1; also called anti-CD3 7A3) VH: EVQLQQSGAELVRPGALVKLSCKGSGFNIKDYYIHWVKQRPEQGLEWIGWIDPENGNNKYDPKFQGKASITADTSSNIAYLQLSSLTSEDTAVYYCARNDNYAFDYWGQGTTVTVSS VL: DIVVSQSPSSLAVSAGEKVIMSCKSSQSLLNSRTRKNYLAWYQLKPGQSPKLLIYSASTRESGVPDRFTGSGSGTDFTLTISSVQTEDLAVYYCMQSFTLRTFGGGTKLEIK

The remaining lines, values behind:

Binder | MFI [1] | MFI [2] | MFI [3] | MFI [4] | Kd (human CD3 (huCD3ed)) [nM]
A02_Rd4_6 nM_C16 expressed in mouse IgG2a (antibody, V domains shown) VH: EVQLLESGGGLVQPGGSLRLSCAASGFTFSSYAMNWVRQAPGKGLEWVSAISDFGGSTYYADSVKGRFTISRDNSKNTLYLQMNSLRAEDTAVYYCARYWPMDIWGQGTLVTVSS VL: EIVLTQSPGTLSLSPGERATLSCRASQSVSDLYLAWYQQKPGQAPRLLMYDASIRATGIPDRFSGSGSGTDFTLTISRLEPEDFAVYYCQQYQTWPLTFGQGTKVEIK | 3090 | 1950 | 421 | 789 | 
1A4 (antibody, mouse IgG1, V domains shown, Cloned from immunized mouse, expressed as mouse IgG1; also called anti-CD3 1A4) VH: QVQLQQSGPDLVKPGASVEISCKASGYSFTTYYLHWVRQRPGQGLEWIGWIFPGSDNTKYNEKFKGKATLTADTSSSTAYMQLSSLTSEDSAVYFCARNRDYYFDYWGQGTTVTVSS VL: DIVMSQSPSSLAVSAGEKVTMSCKSSQSLLNSRTRKNYLAWYQQKPGQSPKLLIYWASTRASGVPDRFTGSGSGTDFTLTISSVQAEDLAIYYCKQSFILRTFGGGTKLEIK |  |  |  |  | 100
